# Measurements from patent publication US20210395340A1 (KINDRED BIOSCIENCES, published 2021).
# T1: canine IL13 with C-terminal poly-His tag (produced in 293 cells) (canine, UniProt Q9N0W9 19-131)
# T1 sequence: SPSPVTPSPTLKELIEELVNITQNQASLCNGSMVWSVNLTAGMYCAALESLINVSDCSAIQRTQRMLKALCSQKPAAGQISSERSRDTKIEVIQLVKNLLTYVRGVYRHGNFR
# T2: canine IL4 (Sino Biological Inc, Cat #70021-DNAE-5) (canine, UniProt O77762 25-132, limits assumed)
# T2 sequence (looked up): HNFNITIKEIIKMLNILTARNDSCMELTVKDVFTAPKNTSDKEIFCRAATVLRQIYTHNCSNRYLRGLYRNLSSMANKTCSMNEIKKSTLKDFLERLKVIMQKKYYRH
# Key:
# [1] = target: T1, canine IL13 with C-terminal poly-His …; assay: BLI (Octet)
# [2] = target: T2, canine IL4 (Sino Biological Inc, Cat …); assay: cell-based or functional assay
binder,measurement,setting,value
"canine IL13RECD-IL4RECD-IgGB Fc (Fc fusion, also called canine IL13RECD-IL4RECD-Fc; IL13R ECD/IL4R ECD contiguous polypeptide) TETQPPVTNLSVSVENLCTVIWTWDPPEGASPNCTLRYFSHFDNKQDKKIAPETHRSKEVPLNERICLQVGSQCSTNESDNPSILVEKCTPPPEGDPESAVTELQCVWHNLSYMKCTWLPGRNTSPDTNYTLYYWHSSLGKILQCEDIYREGQHIGCSFALTNLKDSSFEQHSVQIVVKDNAGKIRPSFNIVPLTSHVKPDPPHIKRLFFQNGNLYVQWKNPQNFYSRCLSYQVEVNNSQTETNDIFYVEEAKCQNSEFEGNLEGTICFMVPGVLPDTLNTVRIRVRTNKLCYEDDKLWSNWSQAMSIGENTDPTGGGSGSGSVKVLHEPSCFSDYISTSVCQWKMDHPTNCSAELRLSYQLDFMGSENHTCVPENREDSVCVCSMPIDDAVEADVYQLDLWAGQQLLWSGSFQPSKHVKPRTPGNLTVHPNISHTWLLMWTNPYPTENHLHSELTYMVNVSNDNDPEDFKVYNVTYMGPTLRLAASTLKSGASYSARVRAWAQTYNSTWSDWSPSTTWLNYYEPKRENGRVPRPPDCPKCPAPEMLGGPSVFIFPPKPKDTLLIARTPEVTCVVVDLDPEDPEVQISWFVDGKQMQTAKTQPREEQFNGTYRVVSVLPIGHQDWLKGKQFTCKVNNKALPSPIERTISKARGQAHQPSVYVLPPSREELSKNTVSLTCLIKDFFPPDIDVEWQSNGQQEPESKYRTTPPQLDEDGSYFLYSKLSVDKSRWQRGDTFICAVMHEALHNHYTQESLSHSPGK",binding result,[1],binds
"canine IL4RECD-IL13RECD-IgGB Fc (Fc fusion, The IL4R ECD precedes the IL13R ECD, followed by canine IgG-B Fc; also called canine IL4RECD-IL13RECD-Fc; SINK) SGSVKVLHEPSCFSDYISTSVCQWKMDHPTNCSAELRLSYQLDFMGSENHTCVPENREDSVCVCSMPIDDAVEADVYQLDLWAGQQLLWSGSFQPSKHVKPRTPGNLTVHPNISHTWLLMWTNPYPTENHLHSELTYMVNVSNDNDPEDFKVYNVTYMGPTLRLAASTLKSGASYSARVRAWAQTYNSTWSDWSPSTTWLNYYEPGGGSGTETQPPVTNLSVSVENLCTVIWTWDPPEGASPNCTLRYFSHFDNKQDKKIAPETHRSKEVPLNERICLQVGSQCSTNESDNPSILVEKCTPPPEGDPESAVTELQCVWHNLSYMKCTWLPGRNTSPDTNYTLYYWHSSLGKILQCEDIYREGQHIGCSFALTNLKDSSFEQHSVQIVVKDNAGKIRPSFNIVPLTSHVKPDPPHIKRLFFQNGNLYVQWKNPQNFYSRCLSYQVEVNNSQTETNDIFYVEEAKCQNSEFEGNLEGTICFMVPGVLPDTLNTVRIRVRTNKLCYEDDKLWSNWSQAMSIGENTDPTPKRENGRVPRPPDCPKCPAPEMLGGPSVFIFPPKPKDTLLIARTPEVTCVVVDLDPEDPEVQISWFVDGKQMQTAKTQPREEQFNGTYRVVSVLPIGHQDWLKGKQFTCKVNNKALPSPIERTISKARGQAHQPSVYVLPPSREELSKNTVSLTCLIKDFFPPDIDVEWQSNGQQEPESKYRTTPPQLDEDGSYFLYSKLSVDKSRWQRGDTFICAVMHEALHNHYTQESLSHSPGK","TF1 cell proliferation assay (CellTiter-Glo luminescence), IC50",[2],2 nM
same,binding result,[1],binds
